Assay results from patent publication US20140286957A1 (Teva, published 2014).
Where two headings read alike, the source gives them in different places.

Key:
Human CD1d on cells [1] = target: T1, Human CD1d on cells (human, UniProt P15813 20-335); test: cell-based or functional assay
T1 sequence (looked up): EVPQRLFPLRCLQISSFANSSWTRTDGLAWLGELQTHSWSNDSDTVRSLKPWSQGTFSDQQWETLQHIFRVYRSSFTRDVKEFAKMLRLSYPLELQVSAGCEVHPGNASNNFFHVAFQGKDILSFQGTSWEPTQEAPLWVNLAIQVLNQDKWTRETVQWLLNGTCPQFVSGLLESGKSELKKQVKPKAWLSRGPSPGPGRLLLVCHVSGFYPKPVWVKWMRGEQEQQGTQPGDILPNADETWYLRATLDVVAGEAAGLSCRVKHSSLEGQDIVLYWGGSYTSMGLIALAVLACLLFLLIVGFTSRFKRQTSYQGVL

Human CD1d/β2M [2] = target: T2, Human CD1d/β2M (human, UniProt P15813 20-301; P61769 21-119); test: SPR, transfection supernatant
T2 construct: also called hCD1d; recombinant human CD1d

Human CD1d on cells [3] = target: T1, Human CD1d on cells; test: cell-based or functional assay; remark: listed apart in the source
Human CD1d on cells [4] = target: T1, Human CD1d on cells; test: cell-based or functional assay; remark: listed apart in the source
Human CD1d/β2M [5] = target: T2, Human CD1d/β2M; test: SPR, Protein A purified IgG

B1: 401.11.26 (antibody, IgG4, V domains shown)
VH: EVQLVESGGGLVQPGRSLRLSCAASGFTFDDYAMHWVRQAPGKGLEWVATIIWNSAIIGYADSVKGRFIVSRDNAKNSLYLQMNSLRAEDMALYYCAKDMCSSSGCPDGYFDSWGQGTLVTVSS
VL: DIQMTQSPSSVSASVGDRVTITCRASQHISSWLAWYQQKPGKAPNLLIYAASSLQSGVPSRFSGSGSGTDFTLTISSLQPEDFATYYCQQANRFPLTFGGGTKLEIKR
notes: IgG4 (S228P)
- NKT IFN-γ EC50 (THP-1) (Human CD1d on cells [1]): 3.25 ng/mL
- NKT IFN-γ EC50 (moDC) (Human CD1d on cells [1]): 1.3 ng/mL
- Kd (Human CD1d/β2M [2]): 0.855 nM

B2: 401.11.27 (antibody, V domains shown)
VH: QVQLVGSGGGLVKPGRSLRLSCAASGFTFDDYAMHWVRQAPGKGLEWVATIIWNSAIIGYADSVKGRFTISRDNAKNSLYLQMNSLRAEDMALYYCAKDMCSSSGCPDGYFDSWGQGTLVTVSS
VL: DIQMTQSPSSVSASVGDRVTITCRASQHISSWLAWYQQKPGKAPNLLIYAASSLQSGVPSRFSGSGSGTDFTLTISSLQPEDFATYYCQQANRFPLTFGGGTKLEIK
- binding result (Human CD1d/β2M [2]): no binding

B3: 401.11.22 (antibody, V domains shown)
VH: EVQLVESGGGLVQPGRSLRLSCAASGFTFDDYAMHWVRQAPGKGLEWVATIIWNSAIIGYADSVKGRFIVSRDNAKNSLYLQMNSLRAEDMALYYCAKDMCSSSGCPDGYFDSWGQGTLVTVSS
VL: DIQMTQSPSSVSASVGDRVTITCRASQHISSWLAWYQQKPGKAPKLLIYAASSLQSGVSSRFSGSGSGTDFTLTISSLQPEDFATYYCQQANRFPLTFGGGTKLEIK
- Kd (Human CD1d/β2M [2]): 0.754 nM

B4: 401.11.15 (antibody, V domains shown)
VH: EVQLVESGGGLVKPGRSLRLSCAASGFTFDDYAMHWVRQAPGKGLEWVATIIWNSAIIGYADSVKGRFIVSRDNAKNSLYLQMNSLRAEDMALYYCAKDMCSSSGCPDGYFDSWGQGTLVTVSS
VL: DIQMTQSPSSVSASVGDRVTITCRASQHISSWLAWYQQKPGKAPNLLIYAASSLQSGVSSRFSGSGSGTDFTLTISSLQPEDFATYYCQQANRFPLTFGGGTKLEIK
- Kd (Human CD1d/β2M [2]): 0.507 nM

B5: 401.11.21 (antibody, V domains shown)
VH: EVQLVESGGGLVKPGRSLRLSCAASGFTFDDYAMHWVRQAPGKGLEWVATIIWNSAIIGYADSVKGRFIVSRDNAKNSLYLQMNSLRAEDMALYYCAKDMCSSSGCPDGYFDSWGQGTLVTVSS
VL: DIQMTQSPSSVSASVGDRVTITCRASQHISSWLAWYQQKPGKAPKLLIYAASSLQSGVSSRFSGSGSGTDFTLTISSLQPEDFATYYCQQANRFPLTFGGGTKLEIK
- Kd (Human CD1d/β2M [2]): 0.951 nM

B6: 401.11.16 (antibody, V domains shown)
VH: EVQLVESGGGLVQPGRSLRLSCAASGFTFDDYAMHWVRQAPGKGLEWVATIIWNSAIIGYADSVKGRFIVSRDNAKNSLYLQMNSLRAEDMALYYCAKDMCSSSGCPDGYFDSWGQGTLVTVSS
VL: DIQMTQSPSSVSASVGDRVTITCRASQHISSWLAWYQQKPGKAPNLLIYAASSLQSGVSSRFSGSGSGTDFTLTISSLQPEDFATYYCQQANRFPLTFGGGTKLEIK
- binding result (Human CD1d/β2M [2]): no binding

B7: 402.8.53 (antibody, IgG4, V domains shown)
VH: QVQLQESGPGLVKPSETLSLTCAVYGGSFSGYYWSWIRQPPGKGLEWIGEINHAGSTNYNPSLKSRVTISVDTSKNQFSLKLSSVTAADTAVYYCARGEIYDFWKSYLDVWGKGTTVTVSS
VL: QTVVTQEPSLTVSPGGTVTLTCASSSGAVSSGNFPNWFQQKPGQAPRALIFSASNKHSWTPARFSGSLLGGKAVLTLSGVQPEDEAEYYCLLYFGDTQLGVFGGGTKVTVLG
- NKT IFN-γ EC50 (moDC) (Human CD1d on cells [3]): 0.658 ng/mL
- NKT IL-13 EC50 (moDC) (Human CD1d on cells [3]): 1.52 ng/mL
- NKT IFN-γ EC50 (moDC) (Human CD1d on cells [4]): 277 ng/mL
- NKT IL-4 EC50 (moDC) (Human CD1d on cells [4]): 105 ng/mL

B8: 402.8.86 (antibody, IgG4, V domains shown)
VH: QVQLQESGPGLVKPSETLSLTCAVYGGSFSGYYWSWIRQPPGKGLEWIGEINHAGSTNYNPSLKSRVTISVDTSKNQFSLKLSSVTAADTAVYYCARGEIYDFYNSYMDVWGKGTTVTVSS
VL: QTVVTQEPSLTVSPGGTVTLTCASSSGAVSSGNFPNWFQQKPGQAPRALIFSASNKHSWTPARFSGSLLGGKAVLTLSGVQPEDEAEYYCLLYFGDTQLGVFGGGTKVTVLG
notes: IgG4 (S228P)
- NKT IFN-γ EC50 (moDC) (Human CD1d on cells [4]): 14.3 ng/mL
- NKT IL-4 EC50 (moDC) (Human CD1d on cells [4]): 0.721 ng/mL
- Kd (Human CD1d/β2M [5]): 0.357 nM
